The source of these data is patent US20230132049A1 (Genmab, published 2023).

Assay [1] has as its target T1, human CD30 (human, UniProt P28908 19-595).
T1 construct: Endogenous on HL, ALCL and NHL tumor cell lines, or full-length huCD30 (Uniprot P28908) transiently expressed in Expi293F or HEK293 cells; also called huCD30; TNFRSF8
T1 sequence: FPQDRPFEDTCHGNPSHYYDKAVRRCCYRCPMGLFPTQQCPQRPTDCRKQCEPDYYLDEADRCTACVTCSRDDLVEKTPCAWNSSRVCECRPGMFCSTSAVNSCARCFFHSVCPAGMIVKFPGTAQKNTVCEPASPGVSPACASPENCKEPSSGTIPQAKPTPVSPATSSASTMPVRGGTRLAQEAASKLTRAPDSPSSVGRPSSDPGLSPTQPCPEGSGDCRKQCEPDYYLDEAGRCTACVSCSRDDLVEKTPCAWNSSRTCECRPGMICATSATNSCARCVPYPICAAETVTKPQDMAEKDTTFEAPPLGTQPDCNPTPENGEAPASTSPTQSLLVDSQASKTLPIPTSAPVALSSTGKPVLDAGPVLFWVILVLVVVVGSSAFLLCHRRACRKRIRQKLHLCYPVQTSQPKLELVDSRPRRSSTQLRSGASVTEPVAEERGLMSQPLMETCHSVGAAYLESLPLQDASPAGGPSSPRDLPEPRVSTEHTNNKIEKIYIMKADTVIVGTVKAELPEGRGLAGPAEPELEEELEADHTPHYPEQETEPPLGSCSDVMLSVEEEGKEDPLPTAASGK
The assay can be described thus: flow cytometry on HEK293 cells transfected with human CD30. For orientation: In flow cytometry, cells or beads pass a laser one at a time.

In assay [2] the target is T1, human CD30. The assay can be described thus: cell-based or functional assay.
For another assay, the target named is T2, complement protein C1q (human, UniProt P02745 23-245; P02746 28-253; P02747 29-245).
T2 construct: Native C1q in 20% human serum
The assay can be described thus: flow cytometry with FITC anti-C1q: C1q from 20% human serum on activated human CD8+ T cells incubated with the antibody. As for the experimental part: Activated CD8⁺ T cells were seeded in a round-bottom 96-well plate (30,000 cells/well), pelleted, and resuspended in 30 μL assay medium (RPMI-1640 with 25 mM HEPES and L-glutamine, supplemented with 0.1% [w/v] bovine serum albumin fraction V (BSA; Roche, cat. no. 10735086001) and penicillin/streptomycin).
Human serum (20 μL/well; Sanquin, lot 20L15-02), as a source of C1q, was added to a final concentration of 20%. Cells were incubated on ice for 45 min, followed by two washes with cold GMB FACS buffer and incubation with 50 μL fluorescein isothiocyanate (FITC)-conjugated rabbit anti-human C1q (final concentration of 20 μg/mL (DAKO, cat no. F0254); diluted 1:75 in GMB FACS buffer) in the presence or absence of allophycocyanin-conjugated mouse-anti-CD8 (BD Biosciences, cat. no. 555369; diluted 1:50 in GMB FACS buffer) in the dark at 4° C. for 30 min. […] C1q binding to viable cells (as identified by DAPI exclusion) was analyzed by flow cytometry on an iQue3 Screener (Intellicyt Corporation). Data were analyzed using iQue software (Intellicyt Corporation, ForeCyt® Enterprise Client Edition 6.2 [R3], Version 6.2.652).

For assay [3], the target named is T1, human CD30. In words: cell-based or functional assay. The source holds these as a separate data set.

T2 sequence (P02745 23-245 limits assumed, chain 1 of 3): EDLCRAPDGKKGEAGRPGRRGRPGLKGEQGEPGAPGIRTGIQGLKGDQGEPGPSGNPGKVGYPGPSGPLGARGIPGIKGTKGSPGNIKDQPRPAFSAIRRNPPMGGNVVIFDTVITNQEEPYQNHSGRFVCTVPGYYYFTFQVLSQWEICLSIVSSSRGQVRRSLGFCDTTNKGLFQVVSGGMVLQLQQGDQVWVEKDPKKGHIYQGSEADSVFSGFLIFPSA
T2 sequence (P02746 28-253 limits assumed, chain 2 of 3): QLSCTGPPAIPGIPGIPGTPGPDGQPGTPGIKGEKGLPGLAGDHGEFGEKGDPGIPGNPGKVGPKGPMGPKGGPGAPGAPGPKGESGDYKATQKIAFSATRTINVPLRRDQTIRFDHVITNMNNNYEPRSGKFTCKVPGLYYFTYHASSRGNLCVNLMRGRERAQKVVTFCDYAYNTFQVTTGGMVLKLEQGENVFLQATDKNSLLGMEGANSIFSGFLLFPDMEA
T2 sequence (P02747 29-245 limits assumed, chain 3 of 3): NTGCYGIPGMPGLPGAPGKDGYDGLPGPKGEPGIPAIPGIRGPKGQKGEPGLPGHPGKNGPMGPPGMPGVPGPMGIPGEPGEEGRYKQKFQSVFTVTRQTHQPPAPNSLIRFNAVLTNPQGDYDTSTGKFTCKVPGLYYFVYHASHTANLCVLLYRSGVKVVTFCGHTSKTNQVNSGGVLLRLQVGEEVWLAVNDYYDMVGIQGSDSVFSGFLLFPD

B1: bsG1-huCD3-FEAL×CD30-MDX060-FERR (bispecific antibody, human IgG1, kappa, lambda)
heavy 1: not shown
light 1: not shown
heavy 2: QVQLQQWGAGLLKPSETLSLTCAVYGGSFSAYYWSWIRQPPGKGLEWIGDINHGGGTNYNPSLKSRVTISVDTSKNQFSLKLNSVTAADTAVYYCASLTAYWGQGSLVTVSSASTKGPSVFPLAPSSKSTSGGTAALGCLVKDYFPEPVTVSWNSGALTSGVHTFPAVLQSSGLYSLSSVVTVPSSSLGTQTYICNVNHKPSNTKVDKRVEPKSCDKTHTCPPCPAPEFERGPSVFLFPPKPKDTLMISRTPEVTCVVVDVSHEDPEVKFNWYVDGVEVHNAKTKPREEQYNSTYRVVSVLTVLHQDWLNGKEYKCKVSNKALPAPIEKTISKAKGQPREPQVYTLPPSREEMTKNQVSLTCLVKGFYPSDIAVEWESNGQPENNYKTTPPVLDSDGSFFLYSRLTVDKSRWQQGNVFSCSVMHEALHNHYTQKSLSLSPG
light 2: DIQMTQSPTSLSASVGDRVTITCRASQGISSWLTWYQQKPEKAPKSLIYAASSLQSGVPSRFSGSGSGTDFTLTISSLQPEDFATYYCQQYDSYPITFGQGTRLEIKRTVAAPSVFIFPPSDEQLKSGTASVVCLLNNFYPREAKVQWKVDNALQSGNSQESVTEQDSKDSTYSLSSTLTLSKADYEKHKVYACEVTHQGLSSPVTKSFNRGEC
notes: one arm of each; also called bsG1-huCD3×CD30-MDX060
As to B1, in the assay with human CD30 [1], the concentration giving a half-maximal response (EC50 (read off the curve)) (in general, the concentration giving half of the maximal effect) was about 0.09 µg/mL. Besides, in the assay with human CD30 [2], the “cytotoxicity IC50 (µg/mL) average, Karpas-299 cells” value worked out at 0.029 µg/mL and the “cytotoxicity maximum lysis (%) average, Karpas-299 cells” value was determined as 52.3%. For the same molecule, the binding result with complement protein C1q is “no binding (tested: 30 µg/mL)”. Moreover, in the assay with human CD30 [3], the “Cytotoxicity, Average IC50 (µg/mL), KI-JK cells” value is 0.0015 µg/mL and the “Cytotoxicity, Average IC50 (µg/mL), L-428 cells” value was found to be 0.002 µg/mL.
